Molecular target: the molecule itself
Assay: crystal structure

B1: Marasmius oreades agglutinin (natural protein, UniProt Q8X123 1-293, looked up)
chain: MSLRRGIYHIENAGVPSAIDLKDGSSSDGTPIVGWQFTPDTINWHQLWLAEPIPNVADTFTLCNLFSGTYMDLYNGSSEAGTAVNGWQGTAFTTNPHQLWTIKKSSDGTSYKIQNYGSKTFVDLVNGDSSDGAKIAGWTGTWDEGNPHQKWYFNRMSVSSAEAQAAIARNPHIHGTYRGYILDGEYLVLPNATFTQIWKDSGLPGSKWREQIYDCDDFAIAMKAAVGKWGADSWKANGFAIFCGVMLGVNKAGDAAHAYNFTLTKDHADIVFFEPQNGGYLNDIGYDSYMAFY
modifications: side chain of Cys215 oxidized in about 50% of the molecules in the crystal
stoichiometry N: 2
